Data: the supplement of paper PMC11865577

How the values were obtained:
Assay in all cases: pull-down binding Z-score (relative to library population); higher = stronger binding
[1] = tested on: G-clamp-N3 (biotin conjugate); conditions: RNA library: Library-1 (pre-miRNA loops + repeats)
Procedure, shortened: (§1)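 Streptavidin beads bearing 100 pmol of a biotin-conjugated small molecule were incubated for 60 min at 25 °C with 1 μg of heat-folded, Cy5- or Cy3-end-labelled RNA library in phosphate/NaCl/KCl buffer. Hot SDS eluted the RNA that stayed bound after three washes, and this RNA was hybridised for 20 h at 55.5 °C to a DNA barcode microarray. Binding was expressed as a Z-score against the library mean and standard deviation, after subtraction of a beads-only signal and trimmed averaging of barcoded replicate probes.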

[2] = tested on: TO-3-N3 (biotin conjugate); conditions: RNA library: Library-2
Procedure, shortened: as §1

[3] = tested on: TO-3-N3-2 (biotin conjugate); conditions: RNA library: Library-2
Procedure, shortened: as §1

TO-N3 (biotin conjugate) = conditions: RNA library: Library-2
Procedure, shortened: as §1

[4] = tested on: TO-N3-2 (biotin conjugate); conditions: RNA library: Library-2
Procedure, shortened: as §1

Row | Sequence | pull-down binding Z-score [1] | pull-down binding Z-score [2] | pull-down binding Z-score [3] | pull-down binding Z-score (TO-N3 (biotin conjugate)) | pull-down binding Z-score [4]
1 | CUCUCCUGACCAGCUGAGCUGGAGGAGAG [hsa-mir-3160-2] | 1.35 | -0.0412 | -0.397 | -0.48 | -1.08
2 | CUCUCGUGUCCACUAGCAGGCAGGUUUUCUGACACAGG [hsa-mir-604] | 0.743 | -0.343 | 0.313 | -0.0789 | 0.566
3 | CUCUCUGUUGCUCUGAAGGAG [hsa-mir-346] | 1.39 | -0.271 | -0.318 | -0.183 | 0.295
4 | CUCUGAUGUAAUUAGGU [hsa-mir-563] | -1.2 | -0.504 | -0.321 | -0.642 | -0.397
5 | CUCUGCUGUGUAAAUAGUUCUGAGUAGU [hsa-mir-454] | -0.424 | -0.17 | 0.0557 | 0.186 | 0.574
6 | CUCUGGUCAGUUGGGAGUCUGAG [hsa-mir-143] | 0.448 | -0.346 | -0.014 | -0.0514 | 0.949
7 | CUCUGGUCUAUAAUGGGUUAAAUAGUAGAG [hsa-mir-609] | 0.305 | -0.334 | 0.234 | -0.191 | 0.131
8 | CUCUGUAGUUUUCUUAUAGUG [hsa-mir-644a] | -0.255 | -0.635 | -0.532 | -0.566 | -0.669
9 | CUCUUGAUAGCAGACAU [hsa-mir-4775] | -0.839 | -0.326 | 0.14 | -0.14 | 0.291
10 | CUGAAAAUACAAAAUGGAAAAUUCCAG [hsa-mir-4494] | -1.38 | -0.0909 | 0.256 | -0.0822 | -0.365
11 | CUGAACCCGUGGGUGAGGAGUGCAG [hsa-mir-4690] | 0.824 | 0.367 | 0.0142 | 0.515 | 0.925
12 | CUGAACUGGGCUGGGUUGAGCUGGGCUGGGCUGAGUUGAG [hsa-mir-4538] | 1.51 | 4.18 | 5.75 | 3.25 | 2.71
13 | CUGACCCGUUGUCAGACCUGGAAAAAGGGCCGGCUGUGGGCAGGGAGG [hsa-mir-4761] | 1.11 | 4.77 | 5.16 | 4.2 | 3.86
14 | CUGAGAGGUUUACAUUUCUC [hsa-mir-128-1] | -1.07 | -0.664 | -0.672 | -0.648 | -0.0343
15 | CUGAGAGUGUCAUGGUGGAGCCUCCG [hsa-mir-4784] | 0.795 | 0.121 | -0.0723 | 0.735 | 1.55
16 | CUGAGCGGCUCCAUCCCCCGGCCUGCUCAU [hsa-mir-6729] | -1.11 | 0.85 | 0.224 | 1.14 | 1.81
17 | CUGAGCUGGGUACUGCCUGUUCAG [hsa-mir-589] | 0.263 | 0.697 | 0.311 | 0.518 | 0.0632
18 | CUGAGGAAUUUGCUGGGAUAUGUCAG [hsa-mir-584] | 0.609 | 0.181 | 0.168 | 0.66 | 0.799
19 | CUGAGGACAUGCAGUUUCAG [hsa-mir-7702] | 0.946 | -0.471 | -0.579 | -0.651 | -0.304

Row | Sequence | pull-down binding Z-score [1] | pull-down binding Z-score [2] | pull-down binding Z-score [3] | pull-down binding Z-score (TO-N3 (biotin conjugate)) | pull-down binding Z-score [4]
20 | CUGAGGACUGAGGCUCACCUUG [hsa-mir-6772] | 0.0792 | -0.057 | 0.0747 | 0.412 | 0.813
21 | CUGAGUAACUUGUGCUUAUAACUCAG [hsa-mir-5000] | 0.251 | 0.396 | 0.379 | 0.194 | -0.396
22 | CUGAUUCAGAAAGAUCAUCGG [hsa-mir-127] | -0.634 | -0.444 | 0.0704 | -0.346 | 0.226
23 | CUGAUUGUCAUAUGUCGUUUGUGGGAUCCG [hsa-mir-340] | -0.698 | -0.605 | -0.336 | -0.333 | 0.334
24 | CUGCAGAACAUUGCAG [hsa-mir-4310] | 0.0291 | -0.487 | -0.408 | -0.727 | -1.08
25 | CUGCAGAGACGAGGCCUGUAG [hsa-mir-5682] | 0.122 | 0.688 | 0.149 | 0.828 | 0.886
26 | CUGCAGGAAAGGGAAGACCAAGGCUUGCUGUCUGUCCAGUCUGCCACCCUACCCUGU [hsa-mir-1231] | -0.156 | -0.0839 | 0.108 | 0.788 | 1.54
27 | CUGCAGGGACUGUGACACUGAA [hsa-mir-6816] | 1.64 | -0.0339 | 0.24 | 0.85 | 1.22
28 | CUGCAGUGAGCGAUCGGUGCUCUGGGG [hsa-mir-503] | 1.34 | 0.176 | 0.308 | 0.798 | 1.07
29 | CUGCAGUGAGUAGGUCUGCCU [hsa-mir-4254] | -0.362 | 0.19 | 0.253 | 0.705 | 1.17
30 | CUGCCAUUGAAAGUAAAGGCAA [hsa-mir-548ag-2] | 0.525 | 0.656 | 0.239 | 0.608 | 0.104
31 | CUGCCCCUCGAAUCUGCUCCACGAUUUGGGCAG [hsa-mir-4436a] | 0.401 | 0.0656 | -0.181 | -0.337 | -0.521
32 | CUGCGGCCCUGAUGUCUCUACUCCAG [hsa-mir-4691] | -0.134 | 0.388 | 0.103 | 0.703 | 0.919
33 | CUGCUCUCCCUGGCAGCAAG [hsa-mir-7109] | 1.5 | -0.207 | -0.0188 | 0.283 | 0.6
34 | CUGCUGAAUCUUCAGAAAGG [hsa-mir-3142] | -0.0627 | -0.432 | -0.178 | -0.164 | 0.135
35 | CUGCUGCCGAUUCUGCACCAG [hsa-mir-4756] | -1.02 | -0.432 | -0.46 | -0.301 | 0.461
36 | CUGCUGCUGCUGCUGCUGCUGCUGCUGCUGCUGCUGCUGCUGCUGCUG [r(CUG)16] | 2.5 | -0.0148 | -0.215 | 0.778 | 1.37
37 | CUGCUUUUAAAGGUAAUGGCAA [hsa-mir-548ag-1] | -0.0258 | 0.107 | -0.0835 | 0.193 | -0.0105
